# Measurements taken from PMC1249579, “RLIP76, a non-ABC transporter, and drug resistance in epilepsy” (BMC Neuroscience, 2005).
# Tests used:
# Test in all cases: purified protein
# Assay type in all cases: biochemical, Homo sapiens
# purified protein [1] = substrate: NC(=O)N1c2ccccc2C=Cc2ccccc21; details: ATP held constant, ATP-dependent transport, MgCl2, pH 7.4, labelled compound
# purified protein [2] = substrate: Nc1ncnc2c1ncn2[C@@H]1O[C@H](COP(=O)(O)OP(=O)(O)OP(=O)(O)O)[C@@H](O)[C@H]1O; details: co-substrate phenytoin held constant, MgCl2, pH 7.4
# purified protein [3] = substrate: O=C1NC(=O)C(c2ccccc2)(c2ccccc2)N1; details: ATP held constant, ATP-dependent transport, MgCl2, pH 7.4, labelled compound
protein,measurement,setting,value
"RLIP76 (Homo sapiens) (protein, pET30a(+), E. coli BL21(DE3); reconstituted in asolectin-cholesterol liposomes) MTECFLPPTSSPSEHRRVEHGSGLTRTPSSEEISPTKFPGLYRTGEPSPPHDILHEPPDVVSDDEKDHGKKKGKFKKKEKRTEGYAAFQEDSSGDEAESPSKMKRSKGIHVFKKPSFSKKKEKDFKIKEKPKEEKHKEEKHKEEKHKEKKSKDLTAADVVKQWKEKKKKKKPIQEPEVPQIDVPNLKPIFGIPLADAVERTMMYDGIRLPAVFRECIDYVEKYGMKCEGIYRVSGIKSKVDELKAAYDREESTNLEDYEPNTVASLLKQYLRDLPENLLTKELMPRFEEACGRTTETEKVQEFQRLLKELPECNYLLISWLIVHMDHVIAKELETKMNIQNISIVLSPTVQISNRVLYVFFTHVQELFGNVVLKQVMKPLRWSNMATMPTLPETQAGIKEEIRRQEFLLNCLHRDLQGGIKDLSKEERLWEVQRILTALKRKLREAKRQECETKIAQEIASLSKEDVSKEEMNENEEVINILLAQENEILTEQEELLAMEQFLRRQIASEKEEIERLRAEIAEIQSRQQHGRSETEEYSSESESESEDEEELQIILEDLQRQNEELEIKNNHLNQAIHEEREAIIELRVQLRLLQMQRAKAEQQAQEDEEPEWRGGAVQPPRDGVLEPKAAKEQPKAGKEPAKPSPSRDRKETSI",Km,purified protein [1],0.25 µM
same,Km,purified protein [2],1.33 mM
same,Km,purified protein [3],0.43 µM
